Laboratory results: the supplement of paper PMC10567573
± gives the standard deviation.

Experiment: protein stability index of a GFP-peptide fusion (GPS, HEK-293T) (PSI 1-6); higher = more stable
[1] = treatment: DMSO, c terminus: a fixed tail appended
[2] = treatment: MLN4924 1 uM, 8 h, c terminus: a fixed tail appended
[3] = treatment: DMSO, c terminus: native
[4] = treatment: MLN4924 1 uM, 8 h, c terminus: native
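Note: 24-mer peptide tiles fused after GFP, lentivirally expressed, FACS-sorted into six equal bins by GFP/DsRed ratio, decoded by Illumina sequencing, PSI is the read-weighted mean bin number.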

Row | Sequence | protein stability index [1] | protein stability index [2] | protein stability index [3] | protein stability index [4]
1 | CPTPARLATTEKKTEQQRRREKAV [NOP53] | 5.19 ± 0.27 | 5.28 ± 0.24 |  | 
2 | FFKGLVEAVESTLQTPLDIRLKES [TRIM14] | 2.15 ± 0.33 | 2.29 ± 0.28 |  | 
3 | SLEQANRSLQLRIQELELQAQIHG [TFE3] | 3.51 ± 0.33 | 3.52 ± 0.19 |  | 
4 | NNDCRIYVGNLPPDIRTKDIEDVF [SRSF1] | 3.09 ± 0.31 | 3.3 ± 0.37 |  | 
5 | HRSYLGPGSTSPLETSGNPNGRYG [SLC6A17] | 4.27 ± 0.062 | 4.26 ± 0.29 |  | 
6 | SEVTELRRVLQGLEIELQSQLSMK [KRT16] | 2.33 ± 0.2 | 2.33 ± 0.31 |  | 
7 | TPESTKPGPVCQPPVSQSRSLFSS [ANKRD40] | 4.46 ± 0.19 | 4.21 ± 0.21 |  | 
8 | QCSNRIGSMKIKSSWDIDGRATKR [FBXO34] | 3.28 ± 0.2 | 3.52 ± 0.28 |  | 
9 | TSPSSNNSSEELSSALHLSKGMSI [NECAB1] | 4.26 ± 0.19 | 4.24 ± 0.16 |  | 
10 | KLVADFQRYILYWRKRFTEQPITD [ZNF277] | 1.99 ± 0.24 | 2.19 ± 0.44 |  | 
11 | PDCGKAFVSRYKLMRHMATHSPQK [PLAGL1] | 2.88 ± 0.24 | 3 ± 0.22 |  | 
12 | YIPSYTSWYPSAHQEAMQQPQLM [DLX1] |  |  | 2.63 ± 0.36 | 2.44 ± 0.26
13 | EKVEVQLPELFHKIGVGAMTWSPL [KCNAB2] | 2.45 ± 0.26 | 2.51 ± 0.16 |  | 
14 | QEDKALWEEEKALWVEERALLEGE [CCDC70] | 5.09 ± 0.3 | 5.17 ± 0.33 |  | 
15 | WYSPYAKTLQPTKQPNCSSLFKLK [PLD5] | 2.32 ± 0.21 | 2.79 ± 0.21 |  | 
16 | TAEPFPRLHNLYSTPRCAQQAALP [CBY2] | 2.67 ± 0.2 | 2.66 ± 0.24 |  | 
17 | SEFLKRFVEATRKWKVGIPSDPLV [ALDH8A1] | 2.53 ± 0.85 | 2.05 ± 0.2 |  | 
18 | LSRAYDGTTYLPGIVGLNNIKAND [USP39] | 3.45 ± 0.24 | 3.54 ± 0.32 |  | 
19 | TQSDLYKKTQETLSQAGQKTSAAL [TPD52L2] | 4.88 ± 0.067 | 4.93 ± 0.21 |  | 
20 | KLKNDTENHQPVSLSDLEIQASAG [ZNF75A] | 5.21 ± 0.32 | 5.15 ± 0.14 |  | 
21 | ATADFADVADDFENYHKLRRSSSK [NETO1] | 4.99 ± 0.096 | 5.196 ± 0.05 |  | 
22 | EEEEEATNTHPPASLPSQKYPGPQ [CHGA] | 5.61 ± 0.16 | 5.54 ± 0.17 |  | 
23 | LVEKGVLTTEKQNFLLFDMTTHPL [GOLPH3] | 2.51 ± 0.27 | 2.5 ± 0.3 |  | 

Row | Sequence | protein stability index [1] | protein stability index [2] | protein stability index [3] | protein stability index [4]
24 | GNNPNGREAKMICFKSVAKTPYDT [ELOA2] | 3.84 ± 0.43 | 3.93 ± 0.3 |  | 
25 | GLPSSELDAVENQLKWASWELHSL [ZNF24] | 2.98 ± 0.15 | 3 ± 0.38 |  | 
26 | LVNPLDPRNADKIRVKIADLGNAC [SRPK2] | 2.92 ± 0.18 | 2.97 ± 0.22 |  | 
27 | CFVLGFFYPVMLILFLVIGGMLNF [SOAT2] | 3.27 ± 0.52 | 3.53 ± 0.61 |  | 
28 | AGGEENMTETDAFYKREMFDPAEK [CASP6] | 5.13 ± 0.32 | 5.37 ± 0.3 |  | 
29 | GQLDEKEKDLVGLAQIAEVLEMFD [RHOBTB1] | 3.4 ± 0.37 | 3.61 ± 0.58 |  | 
30 | LVDKETDKRHVEQKIQFKRETASL [PDZK1] | 4.72 ± 0.63 | 4.52 ± 0.92 |  | 
31 | EIVVTISWAKSIPGFSSLSLSDQM [ESRRA] | 3.19 ± 0.5 | 2.59 ± 0.22 |  | 
32 | MEKYERIRVVGRGAFGIVHLCLRK [NEK8] | 2.09 ± 0.21 | 2.33 ± 0.27 |  | 
33 | QVADVPEKPRVPAFACQVAGCCQV [ZNF511] | 3.44 ± 0.16 | 3.61 ± 0.35 |  | 
34 | HSRFVELSEAYRVLSREQSRRSYD [DNAJC4] | 3.54 ± 0.23 | 3.7 ± 0.14 |  | 
35 | SSISPGLHSFTDHQRLMKRRKSV [KCNK9] |  |  | 5.64 ± 0.088 | 5.47 ± 0.23
36 | PEFELLWKDIIHNPQALSPQFTGI [INTS3] | 2.16 ± 0.15 | 2.21 ± 0.32 |  | 
37 | ETAPTTVDRTHALMKKIGQCPMRV [CRYL1] | 3.59 ± 0.14 | 3.68 ± 0.2 |  | 
38 | GSLKSVEVREPALRPAKRELRGAE [SPSB4] | 4.98 ± 0.37 | 5.03 ± 0.14 |  | 
39 | VKPENFLIGRPGNKTQQVIHIIDF [CSNK1G3] | 2.4 ± 0.72 | 2.5 ± 0.34 |  | 
40 | RDSAYQSITHYRPVSASRSSLDLS [EMD] | 3.41 ± 0.18 | 3.58 ± 0.22 |  | 
41 | NWATTPSSQKKDTSSSTVVSTQRS [TIA1] | 4.83 ± 0.19 | 4.92 ± 0.18 |  | 
42 | LQANDVFHKQQWFNCIRAAIAPFQ [NET1] | 2.14 ± 0.26 | 2.24 ± 0.28 |  | 
43 | DGISIPELREACDYLCISFEYSTI [BTBD10] | 3.18 ± 0.93 | 2.87 ± 0.56 |  | 
44 | HQRFLREGRFWKSKNEDRGEEEAE [ZMYND11] | 4.94 ± 0.21 | 5.27 ± 0.2 |  | 
45 | AALLGSNSESWGWDIGRGKLYHQS [SPSB2] | 2.6 ± 0.63 | 3.06 ± 0.13 |  | 
46 | NMLFQQNKDGIGEICLWGRHIFMG [ACSBG2] | 2.3 ± 0.33 | 2.3 ± 0.54 |  | 

Row | Sequence | protein stability index [1] | protein stability index [2] | protein stability index [3] | protein stability index [4]
47 | LSRKVAKLVHFLLLKYRAREPVTK [MAGEA6] | 2.7 ± 0.37 | 2.43 ± 0.67 |  | 
48 | KAHKYSELIILYEKKGLHEKALQV [VPS39] | 2.19 ± 0.43 | 2.18 ± 0.46 |  | 
49 | PSIYHTMASPCSAMAYHHDSRRIF [WDFY1] | 2.14 ± 0.72 | 2.18 ± 0.4 |  | 
50 | LPEDDGLEQDLQQVMVSGPNLNET [ARFIP2] | 5.32 ± 0.32 | 5.43 ± 0.13 |  | 
51 | PACLGQPHTPGKPTSSCTSRSAPP [FOXJ1] | 4.51 ± 0.13 | 4.69 ± 0.11 |  | 
52 | SLLAGTADGSLRMDDPKGDFITLY [M1AP] | 2.51 ± 0.22 | 2.44 ± 0.52 |  | 
53 | EVPEMSPVTCCDVSSNNRLVVTGS [TLE6] | 4.35 ± 0.31 | 4.57 ± 0.1 |  | 
54 | KAVFGKHGPISEVLLIKDRTSKSR [RBMY1A1] | 3.04 ± 0.28 | 3.34 ± 0.22 |  | 
55 | LTSRIKGDWIGLYRHFLKSPNFDG [DENND6A] | 2.01 ± 0.31 | 2.37 ± 0.35 |  | 
56 | QPPNAEEESGSSSASEEEDTKPKP [INTS3] | 5.72 ± 0.23 | 5.65 ± 0.21 |  | 
57 | PGRRDEDAGEGIQCSQRMLSFSDA [TMEM175] | 5.07 ± 0.18 | 4.91 ± 0.3 |  | 
58 | ANAQIQILTRSWEEVSTLNAQIPE [CD207] | 3.52 ± 0.18 | 3.53 ± 0.2 |  | 
59 | VAAETGHTSTARLLLHRGAGKEAM [RIPK4] | 3.6 ± 0.28 | 3.46 ± 0.13 |  | 
60 | HYKKAPIFTSEHGEKLYLVRALQ [NCK2] |  |  | 2.42 ± 0.61 | 2.2 ± 0.34
61 | SPEALSLGEVAYHDYHGILVDEEE [ADD1] | 5.58 ± 0.27 | 5.54 ± 0.13 |  | 
62 | TFEQAIQAASRIIRNEQFAIRRFQ [CDC25B] | 2.38 ± 0.48 | 2.01 ± 0.32 |  | 
63 | SLERGTALFAQVQRGALPAPDPEL [RSAD1] | 4.18 ± 0.45 | 4.41 ± 0.38 |  | 
64 | SVSLRKAERLRAELLDLKAGGFSI [MYORG] | 2.25 ± 0.36 | 2.39 ± 0.29 |  | 
65 | IDPRNGIPKLTPGDNPYMYPEQSK [SPATS1] | 4.58 ± 0.13 | 4.5 ± 0.18 |  | 
66 | LPLLESCSVRPDASVSSHRFFGPN [TCF25] | 3.17 ± 0.24 | 3.27 ± 0.26 |  | 
67 | DSPENMMRHIRFLKNEVERLKKQL [CCDC6] | 4.18 ± 0.31 | 4.45 ± 0.35 |  | 
68 | NHGYAEPAAGRELPPDMTVVPGDH [KCNA3] | 5.21 ± 0.14 | 5.24 ± 0.24 |  | 
69 | HVSPPPSADPARGLPRSRDCRVDL [PDLIM4] | 4.76 ± 0.14 | 4.73 ± 0.13 |  | 

Row | Sequence | protein stability index [1] | protein stability index [2] | protein stability index [3] | protein stability index [4]
70 | AKQLQAVKRKIRDESLCPQHHEAL [TRIM39] | 3.99 ± 0.2 | 3.97 ± 0.19 |  | 
71 | MHSFPPLLLLLFWGVVSHSFPATL [MMP1] | 3.14 ± 0.31 | 3.12 ± 0.25 |  | 
72 | QELIQEAKPRATWTLKLDGNLQLD [RTP4] | 3.886 ± 0.038 | 3.82 ± 0.32 |  | 
73 | KGERRREPGGYDSSSTLMSSELET [DVL3] | 5.19 ± 0.19 | 5.15 ± 0.13 |  | 
74 | SQSILPLEHGSIYIPSSYVDSHHE [ESR2] | 3.96 ± 0.19 | 3.95 ± 0.17 |  | 
75 | QYSSHHTAEKRKRLGELFNPYYDP [CHGB] | 3.13 ± 0.25 | 3.28 ± 0.2 |  | 
76 | AFYKEQLARLEERSSEFYRVTTEQ [CHCHD3] | 3.29 ± 0.12 | 3.38 ± 0.34 |  | 
77 | DLIDVREVMERDAKDYADSIHAIF [RAB22A] | 3.16 ± 0.042 | 3.23 ± 0.38 |  | 
78 | MEVLPCSRVAHIERTRKPYNNDID [GALNT9] | 2.46 ± 0.26 | 2.44 ± 0.28 |  | 
79 | LLTLRNSAQAPPDSISLHQPCNPP [DMRTC1] | 3.62 ± 0.14 | 3.82 ± 0.15 |  | 
80 | SMWTRPQIKDFKEKIQQDADSVIT [ACBD3] | 3.88 ± 0.2 | 4.08 ± 0.42 |  | 
81 | LFNLSNFLDKSGSHGYDMSTFIRR [SNAP91] | 2.62 ± 0.62 | 2.25 ± 0.35 |  | 
82 | FLLQNDANPSIRDKEGYNSIHYAA [ANKRD44] | 2.75 ± 0.25 | 2.85 ± 0.32 |  | 
83 | QDLCCRAVVSCTPVHLVDKLPLPI [RAB40B] | 2.4 ± 0.27 | 2.09 ± 0.56 |  | 
84 | DKFIEDYLLPDTCFRMQINHAIDI [OAS1] | 2.59 ± 0.36 | 2.17 ± 0.44 |  | 
85 | DCSEEYLERQLQAEFIESGQYRAN [TAF7L] | 4.09 ± 0.35 | 4.3 ± 0.12 |  | 
86 | ESPSTLQVLPDSESLPRSEIDEKV [MAGEA10] | 5.62 ± 0.19 | 5.63 ± 0.3 |  | 
87 | RPRPQGRSVSEPRDQHPQPSLGDS [RTN2] | 5.04 ± 0.31 | 5.296 ± 0.046 |  | 
88 | SPSTLIGSLRTLELGSESQGASES [HDAC6] | 5.08 ± 0.29 | 4.92 ± 0.33 |  | 
89 | KHFCPRTPVILVGCQLDLRYADLE [RHOBTB1] | 2.35 ± 0.49 | 2.19 ± 0.33 |  | 
